Measured values as given in article PMC6778150 (Scientific Reports, 2019).
Non-standard residues stand in square brackets, D forms with d. Residues, ends and D or L forms follow the SMILES beside them. *: point of attachment. Dnp = O=[N+]([O-])c1ccc(*)c([N+](=O)[O-])c1; 2Abz = Nc1ccccc1C(=O)O

Tests used:
[1] = target: thermolysin (UniProt P00800)
[2] = target: His6-tagged protealysin (Serratia proteamaculans)
[3] = format: physicochemical; conditions: kinetic, from DMSO stock (6 µl + 500 µl), 50 mM Tris-HCl pH 7.4, room temperature, 24 h, spectrophotometric at 365 nm
Description: The substrate sorption on labware complicated the measurement of the Abz-RSVIK(Dnp) solubility since the standard approach based on serial dilutions and identification of the linear range of the experimental concentration-dilution factor relationship could not be used. The substrate solubility was evaluated by periodic spectrophotometric quantitation of its dilutions immediately prepared from the stock in DMSO for one day. Up to 130 µM, the substrate solutions remained stable for 24 h (Supplementary Fig. S3); however, starting from 150 µM their optical density decreased with time. Thus, the substrate has reasonable water solubility and can be used in concentrations up to 130 µM.
The stock solutions (6 µl) in DMSO were supplemented with 500 µl of 50 mM Tris-HCl (pH 7.4). The solutions were incubated at room temperature and the concentration changes were controlled spectrophotometrically for 24 h (Supplementary Fig. S3).
Figure S3. Solubility of Abz-RSVIK(Dnp). Different substrate concentrations were prepared in microcentrifuge tubes (SSI). The stock solution was diluted with DMSO 1.3-20 times. The resulting solutions (6 µl) were supplemented with 500 µl of 50 mM Tris-HCl (pH 7.4). […] A. Measured substrate concentrations for all dilutions and time periods. B. Relationship between substrate concentration and stock quantity 5 h after dilution. […]

[4] = test system: thermolysin (TLN); assay: 7.5 nM TLN in 10 mM NH4HCO3; conditions: 37 °C, up to 40 min
[5] = test system: protealysin (PLN); assay: 2.5 nM PLN in 10 mM NH4HCO3; conditions: Serratia proteamaculans, 37 °C, up to 40 min
[6] = substrate: CC[C@H](C)[C@H](NC(=O)[C@@H](NC(=O)[C@H](CO)NC(=O)[C@H](CCCNC(=N)N)NC(=O)c1ccccc1N)C(C)C)C(=O)N[C@@H](CCCCNc1ccc([N+](=O)[O-])cc1[N+](=O)[O-])C(=O)O; assay: Protease activity assay using Abz-RSVIK(Dnp), hydrolysis kinetic parameters, thermolysin; format: biochemical; conditions: other: thermolysin 2.5 nM, 37 °C, 50 mM Tris-HCl pH 7.4, substrate 2–130 mM as printed, fluorescence ex 320/em 420 nm, Michaelis-Menten fit, two independent experiments with triplicates
Description: Desired substrate concentrations were obtained by dilution of the stock in DMSO in 50 mM Tris-HCl (pH 7.4).
For the activity assay, 100 µl of the substrate solution at 2–130 mM in 50 mM Tris-HCl (pH 7.4) was added into a well of a black 96-well plate. After incubation at 37 °C for 10 min, 25 µl of the substrate were taken away and replaced with 25 µl of the enzyme solution in the same buffer preheated at 37 °C, and time-related fluorescence changes were monitored on an Infinite M200 Pro (Tecan, Switzerland). Measurements were taken at 37 °C every 10 s for 2–5 min at the excitation and emission wavelengths of 320 and 420 nm, respectively. Fluorescence varied linearly for 3 min. The initial hydrolysis rates were determined from the data obtained within the first 95 s of the reaction. The concentrations of PLN and TLN in the reaction mix were 2.5 nM. In parallel with the hydrolysis rate measurements, the control was conducted with the buffer added to a well instead of an enzyme solution. The main goal of this control was to determine the substrate concentration in the reaction mix. After the incubation, the substrate solution was transferred into a spectrophotometer cell to measure its optical density at 365 nm. The concentration calculated from the obtained OD was taken as the initial substrate concentration in the hydrolysis reaction.
A calibration curve was plotted to convert the obtained relative fluorescence data into the hydrolyzed substrate concentration. […] The course of the reaction was followed by fluorescence changes as described above. The hydrolysis was considered as complete when the fluorescence signal remained steady even after an extra portion of the enzyme was added (Supplementary Fig. S4). After the incubation, serial dilutions of the reaction mix were made, introduced into wells of a 96-well plate and fluorescence was measured as described above. 2,4-Dinitrophenyl was quantified spectrophotometrically in each well as described above. The resulting values were used to plot a calibration curve in coordinates of relative fluorescence units, μM. […]

## 2-aminobenzoyl-L-arginyl-L-seryl-L-valyl-L-isoleucyl-L-(ε-2,4-dinitrophenyl)lysine (peptide)
[1]
  KM of hydrolysis of Abz-RSVIK(Dnp) at 37 °C (initial rates fitted to the Michaelis-Menten equation; 2.5 nM enzyme, 50 mM Tris-HCl pH 7.4): 33 μM
[2]
  KM of hydrolysis of Abz-RSVIK(Dnp) at 37 °C (initial rates fitted to the Michaelis-Menten equation; 2.5 nM enzyme, 50 mM Tris-HCl pH 7.4): 35 μM

## CC[C@H](C)[C@H](NC(=O)[C@@H](NC(=O)[C@H](CO)NC(=O)[C@H](CCCNC(=N)N)NC(=O)c1ccccc1N)C(C)C)C(=O)N[C@@H](CCCCNc1ccc([N+](=O)[O-])cc1[N+](=O)[O-])C(=O)O [Abz-RSVIK(Dnp), 2-aminobenzoyl-L-arginyl-L-seryl-L-valyl-L-isoleucyl-L-(ε-2,4-dinitrophenyl)lysine] (H-[2Abz]RSVIK(Dnp)-OH)
[3]
  Solubility: concentration from which optical density decreased with time: ≥ 150 µM

## Abz-Arg-Ser-Val-Ile-Lys(Dnp)
[4]
  cleaved bond: Ser-Val, 20 min
  not cleaved: products remain undetectable after the time period (40 min)
[5]
  cleaved bond: Ser-Val, 20 min
  not cleaved: products remain undetectable after the time period (40 min)

B1: thermolysin (TLN) (Bacillus thermoproteolyticus) (protein)
chain: ITGTSTVGVGRGVLGDQKNINTTYSTYYYLQDNTRGNGIFTYDAKYRTTLPGSLWADADNQFFASYDAPAVDAHYYAGVTYDYYKNVHNRLSYDGNNAAIRSSVHYSQGYNNAFWNGSQMVYGDGDGQTFIPLSGGIDVVAHELTHAVTDYTAGLIYQNESGAINEAISDIFGTLVEFYANKNPDWEIGEDVYTPGISGDSLRSMSDPAKYGDPDHYSKRYTGTQDNGGVHINSGIINKAAYLISQGGTHYGVSVVGIGRDKLGKIFYRALTQYLTPTSNFSQLRAAAVQSATDLYGSTSQEVASVKQAFDAVGVK
notes: purchased Serva, Germany
[6]
  Km: 33 ± 8 µM
  kcat: 7 ± 1 s⁻¹
  kcat/Km: 210000 ± 60000 M⁻¹ s⁻¹
